Data published in patent US20180250395A1 (Janssen / Centocor, published 2018).

Assays:
[1] = target: T1, recombinant human CD47 extracellular domain (ECD), His-tagged, monomer (human, UniProt Q08722 19-141); experiment: ProteOn SPR; mAb captured, ECD monomer as analyte
T1 construct: C-terminal 6xHis tag; monomeric fraction from Superdex 200; also called human CD47 ECD; CD47-ECD monomer

[2] = target: T2, Cyno CD47 ECD protein, His-tagged, monomer (cyno); experiment: ProteOn SPR; mAb captured, ECD monomer as analyte
T2 construct: extracellular domain; also called cynomolgus CD47

[3] = target: T3, recombinant human CD47 extracellular domain (ECD), His-tagged, dimer (human, UniProt Q08722 19-141); experiment: MSD; CD47-ECD dimer binding to captured SIRP alpha-Fc, mAb 10 µg/ml
T3 construct: Dimeric fraction of the same His-tagged ECD; also called His-tagged CD47-ECD dimer protein

[4] = target: T2, Cyno CD47 ECD protein, His-tagged, …; experiment: ProteOn SPR; cyno KD / human KD

B1: C47B213 (antibody, V domains shown)
VH: EVQLVQSGAEVKKPGESLKISCKGSGYSFDDSWIGWVRQMPGKGLEWMGIIYPGDSDTRYSPSFQGQVTISADKSISTAYLQWSSLKASDTAVYYCARVGRFASHQLDYWGQGTLVTVSS
VL: EIVLTQSPATLSLSPGERATLSCRASQSVNKALAWYQQKPGQAPRLLIYGASNRATGIPARFSGSGSGTDFTLTISSLEPEDFAVYYCQQGKGWPFTFGQGTKVEIK
notes: human IgG2sigma/kappa
Question: Which Kd [1] does the source give for B1 here?
Answer: 2.33 nM

Question: And the Kd [2]?
Answer: 4.25 nM

Question: What about the “% SIRP alpha Inhibition” value [3] of the same binder?
Answer: 71.6%

Question: And the “KD Ratio Cyno/Human” value [4]?
Answer: 1.8

B2: C47B214 (antibody, V domains shown)
VH: EVQLVQSGAEVKKPGESLKISCKGSGYSFDDSWIGWVRQMPGKGLEWMGIIYPGDSDTRYSPSFQGQVTISADKSISTAYLQWSSLKASDTAVYYCARVGRFASHQLDYWGQGTLVTVSS
VL: EIVLTQSPATLSLSPGERATLSCRASQSVNNRLAWYQQKPGQAPRLLIHWASTRAIGIPARFSGSGSGTDFTLTISSLEPEDFAVYYCQQGASWPFTFGQGTKVEIK
notes: human IgG2sigma/kappa
Question: How did the Kd [1] turn out when B2 was run?
Answer: 2.3 nM

Question: What about the Kd [2] of the same binder?
Answer: 1.4 nM

Question: And the “% SIRP alpha Inhibition” value [3]?
Answer: 99.7%

Question: What about the “KD Ratio Cyno/Human” value [4] of the same binder?
Answer: 0.6

B3: C47B215 (antibody, V domains shown)
VH: EVQLVQSGAEVKKPGESLKISCKGSGYSFDDSWIGWVRQMPGKGLEWMGIIYPGDSDTRYSPSFQGQVTISADKSISTAYLQWSSLKASDTAVYYCARVGRFASHQLDYWGQGTLVTVSS
VL: EIVLTQSPATLSLSPGERATLSCRASQSVGSRLAWYQQKPGQAPRLLIYWASTRATGIPARFSGSGSGTDFTLTISSLEPEDFAVYYCQQGAYWPFTFGQGTKVEIK
notes: human IgG2sigma/kappa
Question: Which results are given for B3?
Answer: Kd [1]: 2.05 nM; Kd [2]: 1.44 nM; % SIRP alpha Inhibition [3]: 99.6%; KD Ratio Cyno/Human [4]: 0.7

B4: C47B216 (antibody, V domains shown)
VH: EVQLVQSGAEVKKPGESLKISCKGSGYSFDDSWIGWVRQMPGKGLEWMGIIYPGDSDTRYSPSFQGQVTISADKSISTAYLQWSSLKASDTAVYYCARVGRFASHQLDYWGQGTLVTVSS
VL: EIVLTQSPATLSLSPGERATLSCRASQSVSNRQAWYQQKPGQAPRLLIHSASNRATGIPARFSGSGSGTDFTLTISSLEPEDFAVYYCQQGRSWPFTFGQGTKVEIK
notes: human IgG2sigma/kappa
Question: B4 was tested. Which Kd [1] did it give?
Answer: 3.35 nM

Question: What about the Kd [2] of the same binder?
Answer: 2.74 nM

Question: And the “% SIRP alpha Inhibition” value [3]?
Answer: 99.8%

Question: And the “KD Ratio Cyno/Human” value [4]?
Answer: 0.8

B5: C47B217 (antibody, V domains shown)
VH: EVQLVQSGAEVKKPGESLKISCKGSGYSFTDSWIGWVRQMPGKGLEWMGIIYPGDSDTRYSPSFQGQVTISADKSISTAYLQWSSLKASDTAVYYCARVGRFASHQLDYWGQGTLVTVSS
VL: EIVLTQSPATLSLSPGERATLSCRASQSVNKALAWYQQKPGQAPRLLIYGASNRATGIPARFSGSGSGTDFTLTISSLEPEDFAVYYCQQGKGWPFTFGQGTKVEIK
notes: human IgG2sigma/kappa
Question: Which results are given for B5?
Answer: Kd [1]: 7.67 nM; Kd [2]: 5.56 nM; % SIRP alpha Inhibition [3]: 83.1%; KD Ratio Cyno/Human [4]: 0.7

B6: C47B218 (antibody, V domains shown)
VH: EVQLVQSGAEVKKPGESLKISCKGSGYSFTDSWIGWVRQMPGKGLEWMGIIYPGDSDTRYSPSFQGQVTISADKSISTAYLQWSSLKASDTAVYYCARVGRFASHQLDYWGQGTLVTVSS
VL: EIVLTQSPATLSLSPGERATLSCRASQSVNNRLAWYQQKPGQAPRLLIHWASTRAIGIPARFSGSGSGTDFTLTISSLEPEDFAVYYCQQGASWPFTFGQGTKVEIK
notes: human IgG2sigma/kappa
Question: Which Kd [1] does the source give for B6 here?
Answer: 2.56 nM

Question: What about the Kd [2] of the same binder?
Answer: 1.58 nM

Question: What about the “% SIRP alpha Inhibition” value [3] of the same binder?
Answer: 98.9%

Question: What about the “KD Ratio Cyno/Human” value [4] of the same binder?
Answer: 0.6

B7: C47B219 (antibody, V domains shown)
VH: EVQLVQSGAEVKKPGESLKISCKGSGYSFTDSWIGWVRQMPGKGLEWMGIIYPGDSDTRYSPSFQGQVTISADKSISTAYLQWSSLKASDTAVYYCARVGRFASHQLDYWGQGTLVTVSS
VL: EIVLTQSPATLSLSPGERATLSCRASQSVGSRLAWYQQKPGQAPRLLIYWASTRATGIPARFSGSGSGTDFTLTISSLEPEDFAVYYCQQGAYWPFTFGQGTKVEIK
notes: human IgG2sigma/kappa
Question: What does the source list for B7?
Answer: Kd [1]: 2.58 nM; Kd [2]: 1.66 nM; % SIRP alpha Inhibition [3]: 99.4%; KD Ratio Cyno/Human [4]: 0.6

B8: C47B220 (antibody, V domains shown)
VH: EVQLVQSGAEVKKPGESLKISCKGSGYSFTDSWIGWVRQMPGKGLEWMGIIYPGDSDTRYSPSFQGQVTISADKSISTAYLQWSSLKASDTAVYYCARVGRFASHQLDYWGQGTLVTVSS
VL: EIVLTQSPATLSLSPGERATLSCRASQSVSNRQAWYQQKPGQAPRLLIHSASNRATGIPARFSGSGSGTDFTLTISSLEPEDFAVYYCQQGRSWPFTFGQGTKVEIK
notes: human IgG2sigma/kappa
Question: What does the source list for B8?
Answer: Kd [1]: 4.3 nM; Kd [2]: 3.74 nM; % SIRP alpha Inhibition [3]: 98.6%; KD Ratio Cyno/Human [4]: 0.9

B9: C47B221 (antibody, V domains shown)
VH: EVQLVQSGAEVKKPGESLKISCKGSGYSFTDYWIGWVRQMPGKGLEWMGIIYPGDSDTRYSPSFQGQVTISADKSISTAYLQWSSLKASDTAVYYCARVGRFASHQLDYWGQGTLVTVSS
VL: EIVLTQSPATLSLSPGERATLSCRASQSVNKALAWYQQKPGQAPRLLIYGASNRATGIPARFSGSGSGTDFTLTISSLEPEDFAVYYCQQGKGWPFTFGQGTKVEIK
notes: human IgG2sigma/kappa
Question: What does the source list for B9?
Answer: Kd [1]: 5.21 nM; Kd [2]: 4.5 nM; % SIRP alpha Inhibition [3]: 95%; KD Ratio Cyno/Human [4]: 0.9

B10: C47B222 (human IgG2sigma) (antibody, V domains shown)
VH: EVQLVQSGAEVKKPGESLKISCKGSGYSFTDYWIGWVRQMPGKGLEWMGIIYPGDSDTRYSPSFQGQVTISADKSISTAYLQWSSLKASDTAVYYCARVGRFASHQLDYWGQGTLVTVSS
VL: EIVLTQSPATLSLSPGERATLSCRASQSVNNRLAWYQQKPGQAPRLLIHWASTRAIGIPARFSGSGSGTDFTLTISSLEPEDFAVYYCQQGASWPFTFGQGTKVEIK
notes: human IgG2sigma/kappa; also called IgG2 Fc-silent C47B222
Question: For B10, which Kd [1] is on record?
Answer: 1.12 nM

Question: What about the Kd [2] of the same binder?
Answer: 0.842 nM

Question: What about the “% SIRP alpha Inhibition” value [3] of the same binder?
Answer: 99.9%

Question: And the “KD Ratio Cyno/Human” value [4]?
Answer: 0.8

B11: C47B223 (antibody, V domains shown)
VH: EVQLVQSGAEVKKPGESLKISCKGSGYSFTDYWIGWVRQMPGKGLEWMGIIYPGDSDTRYSPSFQGQVTISADKSISTAYLQWSSLKASDTAVYYCARVGRFASHQLDYWGQGTLVTVSS
VL: EIVLTQSPATLSLSPGERATLSCRASQSVGSRLAWYQQKPGQAPRLLIYWASTRATGIPARFSGSGSGTDFTLTISSLEPEDFAVYYCQQGAYWPFTFGQGTKVEIK
notes: human IgG2sigma/kappa
Question: How did the Kd [1] turn out when B11 was run?
Answer: 1.14 nM

Question: And the Kd [2]?
Answer: 0.807 nM

Question: And the “% SIRP alpha Inhibition” value [3]?
Answer: 100%

Question: What about the “KD Ratio Cyno/Human” value [4] of the same binder?
Answer: 0.7

B12: C47B224 (antibody, V domains shown)
VH: EVQLVQSGAEVKKPGESLKISCKGSGYSFTDYWIGWVRQMPGKGLEWMGIIYPGDSDTRYSPSFQGQVTISADKSISTAYLQWSSLKASDTAVYYCARVGRFASHQLDYWGQGTLVTVSS
VL: EIVLTQSPATLSLSPGERATLSCRASQSVSNRQAWYQQKPGQAPRLLIHSASNRATGIPARFSGSGSGTDFTLTISSLEPEDFAVYYCQQGRSWPFTFGQGTKVEIK
notes: human IgG2sigma/kappa
Question: B12 was tested. Which Kd [1] did it give?
Answer: 2.46 nM

Question: And the Kd [2]?
Answer: 2.19 nM

Question: And the “% SIRP alpha Inhibition” value [3]?
Answer: 99.7%

Question: What about the “KD Ratio Cyno/Human” value [4] of the same binder?
Answer: 0.9

B13: C47B225 (antibody, V domains shown)
VH: EVQLVQSGAEVKKPGESLKISCKGSGYSFDDYWIGWVRQMPGKGLEWMGIIYPGDSDTRYSPSFQGQVTISADKSISTAYLQWSSLKASDTAVYYCARVGRFASHQLDYWGQGTLVTVSS
VL: EIVLTQSPATLSLSPGERATLSCRASQSVNKALAWYQQKPGQAPRLLIYGASNRATGIPARFSGSGSGTDFTLTISSLEPEDFAVYYCQQGKGWPFTFGQGTKVEIK
notes: human IgG2sigma/kappa
Question: Which results are given for B13?
Answer: Kd [1]: 3.31 nM; Kd [2]: 3.76 nM; % SIRP alpha Inhibition [3]: 96.3%; KD Ratio Cyno/Human [4]: 1.1
